The series can be described thus: melting temperature; melt of duplexes. To be noted: sodium 0.0675 M; strand 1 µM.
In the case of “CGACGTGCGTTATGTGCTG+CAGCACATTGTGCACGTCG ((((((((...((((((((+))))))))...))))))))”, the Tm (as a rule, the temperature at which the thermal transition is half complete) was 47.2 °C.

Turning to “CGACGTGCTACATGTGCTG+CAGCACATCGAGCACGTCG (((((((((..((((((((+))))))))..)))))))))”, the Tm is 51.6 °C.

As to “CGACGTGCAAAATGTGCTG+CAGCACATTTTGCACGTCG (((((((((((((((((((+)))))))))))))))))))”, the melting temperature (Tm) came to 62.4 °C.

Take “CGACGTGCACTATGTGCTG+CAGCACATGAGGCACGTCG ((((((((...((((((((+))))))))...))))))))”: the Tm was 47.5 °C.

For the substance “CGACGTGCTACATGTGCTG+CAGCACATGCGGCACGTCG ((((((((..(((((((((+)))))))))..))))))))”, the Tm is 54.1 °C.

Regarding “CGACGTGCGGGATGTGCTG+CAGCACATCCTGCACGTCG ((((((((.((((((((((+)))))))))).))))))))”, the Tm turned out to be 62.6 °C.

Take “CGACGTGCCGTATGTGCTG+CAGCACATTCGGCACGTCG ((((((((((.((((((((+)))))))).))))))))))”: the Tm was found to be 59.9 °C.

In the case of “CGACGTGCAAGATGTGCTG+CAGCACATTCCGCACGTCG ((((((((...((((((((+))))))))...))))))))”, the Tm was determined as 49.4 °C.

For “CGACGTGCGATATGTGCTG+CAGCACATCGTGCACGTCG ((((((((...((((((((+))))))))...))))))))”, the Tm is 44.3 °C.

Consider “CGACGTGCCATATGTGCTG+CAGCACATTCAGCACGTCG ((((((((...((((((((+))))))))...))))))))”, for which the Tm was 50.2 °C.

On to “CGACGTGCTAAATGTGCTG+CAGCACATATAGCACGTCG ((((((((((.((((((((+)))))))).))))))))))”, for which the Tm was determined as 55.4 °C.

As to “CGACGTGCCCTATGTGCTG+CAGCACATATGGCACGTCG (((((((((.(((((((((+))))))))).)))))))))”, the Tm came to 55.8 °C.

Consider “CGACGTGCATGATGTGCTG+CAGCACATTTAGCACGTCG ((((((((...((((((((+))))))))...))))))))”, for which the Tm amounted to 49.8 °C.

In the case of “CGACGTGCCCCATGTGCTG+CAGCACATCGGGCACGTCG ((((((((((.((((((((+)))))))).))))))))))”, the Tm came to 57.2 °C.

Turning to “CGACGTGCGTAATGTGCTG+CAGCACATGGCGCACGTCG (((((((((..((((((((+))))))))..)))))))))”, the Tm was found to be 57.2 °C.

Take “CGACGTGCCTTATGTGCTG+CAGCACATGATGCACGTCG ((((((((.(.((((((((+)))))))).).))))))))”: the Tm is 50.1 °C.

For the substance “CGACGTGCGCCATGTGCTG+CAGCACATCGCGCACGTCG ((((((((((.((((((((+)))))))).))))))))))”, the Tm worked out at 58.3 °C.

As to “CGACGTGCTGAATGTGCTG+CAGCACATCTTGCACGTCG ((((((((...((((((((+))))))))...))))))))”, the Tm was 50.5 °C.

In the case of “CGACGTGCGAAATGTGCTG+CAGCACATCAAGCACGTCG ((((((((...((((((((+))))))))...))))))))”, the Tm was 52.3 °C.

Take “CGACGTGCCTTATGTGCTG+CAGCACATATCGCACGTCG ((((((((..(((((((((+)))))))))..))))))))”: the Tm is 49.9 °C.

Turning to “CGACGTGCATCATGTGCTG+CAGCACATTGGGCACGTCG ((((((((...((((((((+))))))))...))))))))”, the Tm is 50 °C.

For “CGACGTGCTTCATGTGCTG+CAGCACATATAGCACGTCG (((((((((..((((((((+))))))))..)))))))))”, the Tm worked out at 51.5 °C.

As for “CGACGTGCCAGATGTGCTG+CAGCACATGCCGCACGTCG ((((((((...((((((((+))))))))...))))))))”, the Tm was 49.5 °C.

For the substance “CGACGTGCTTGATGTGCTG+CAGCACATGAAGCACGTCG ((((((((((.((((((((+)))))))).))))))))))”, the melting temperature (Tm) was found to be 56.6 °C.

As for “CGACGTGCACCATGTGCTG+CAGCACATTAAGCACGTCG ((((((((...((((((((+))))))))...))))))))”, the Tm was 43.9 °C.

Regarding “CGACGTGCCCAATGTGCTG+CAGCACATCGCGCACGTCG ((((((((.(.((((((((+)))))))).).))))))))”, the Tm is 48.7 °C.

For “CGACGTGCTCGATGTGCTG+CAGCACATCATGCACGTCG ((((((((..(((((((((+)))))))))..))))))))”, the Tm was 54.1 °C.

As to “CGACGTGCCCAATGTGCTG+CAGCACATCTCGCACGTCG ((((((((...((((((((+))))))))...))))))))”, the Tm stood at 47.6 °C.

Turning to “CGACGTGCGTAATGTGCTG+CAGCACATTCGGCACGTCG ((((((((..(((((((((+)))))))))..))))))))”, the Tm turned out to be 53.1 °C.

Take “CGACGTGCATAATGTGCTG+CAGCACATAGAGCACGTCG ((((((((...((((((((+))))))))...))))))))”: the Tm came to 48.7 °C.

For “CGACGTGCGCCATGTGCTG+CAGCACATACCGCACGTCG (((((((((..((((((((+))))))))..)))))))))”, the Tm is 51 °C.

“CGACGTGCAGCATGTGCTG+CAGCACATATGGCACGTCG ((((((((...((((((((+))))))))...))))))))”: the Tm was 46.7 °C.

As to “CGACGTGCCAAATGTGCTG+CAGCACATGGGGCACGTCG (((((((((..((((((((+))))))))..)))))))))”, the Tm turned out to be 56.6 °C.

On to “CGACGTGCGGGATGTGCTG+CAGCACATAAAGCACGTCG ((((((((...((((((((+))))))))...))))))))”, for which the midpoint of thermal melting (Tm) came to 53.6 °C.

For the substance “CGACGTGCTGTATGTGCTG+CAGCACATGTGGCACGTCG ((((((((...((((((((+))))))))...))))))))”, the Tm was found to be 51 °C.

In the case of “CGACGTGCTCTATGTGCTG+CAGCACATGGAGCACGTCG ((((((((((.((((((((+)))))))).))))))))))”, the Tm is 59.7 °C.

In the case of “CGACGTGCCTCATGTGCTG+CAGCACATTTAGCACGTCG ((((((((...((((((((+))))))))...))))))))”, the Tm amounted to 47.5 °C.

Regarding “CGACGTGCGTTATGTGCTG+CAGCACATTCGGCACGTCG ((((((((...((((((((+))))))))...))))))))”, the Tm is 49.8 °C.

With “CGACGTGCAGCATGTGCTG+CAGCACATCCGGCACGTCG ((((((((.(.((((((((+)))))))).).))))))))”, the Tm is 49 °C.

With “CGACGTGCTGTATGTGCTG+CAGCACATCTCGCACGTCG ((((((((...((((((((+))))))))...))))))))”, the Tm came out at 48.9 °C.

Regarding “CGACGTGCCTTATGTGCTG+CAGCACATAACGCACGTCG ((((((((.((((((((((+)))))))))).))))))))”, the Tm amounted to 52.2 °C.

For “CGACGTGCAACATGTGCTG+CAGCACATAACGCACGTCG ((((((((...((((((((+))))))))...))))))))”, the Tm was determined as 48.2 °C.

As for “CGACGTGCAGCATGTGCTG+CAGCACATGGGGCACGTCG ((((((((..(((((((((+)))))))))..))))))))”, the Tm is 56.9 °C.

With “CGACGTGCGTTATGTGCTG+CAGCACATTTCGCACGTCG (((((((((..((((((((+))))))))..)))))))))”, the melting temperature (Tm) was 54.4 °C.

“CGACGTGCATAATGTGCTG+CAGCACATACGGCACGTCG ((((((((...((((((((+))))))))...))))))))”: the Tm is 47.3 °C.

On to “CGACGTGCATAATGTGCTG+CAGCACATCGCGCACGTCG ((((((((...((((((((+))))))))...))))))))”, for which the Tm was determined as 46.9 °C.

Consider “CGACGTGCTAAATGTGCTG+CAGCACATGGCGCACGTCG ((((((((...((((((((+))))))))...))))))))”, for which the Tm is 51.2 °C.

As to “CGACGTGCGTGATGTGCTG+CAGCACATAGAGCACGTCG ((((((((...((((((((+))))))))...))))))))”, the Tm was 53.1 °C.

Take “CGACGTGCCTGATGTGCTG+CAGCACATTATGCACGTCG ((((((((.(.((((((((+)))))))).).))))))))”: the Tm came to 50.2 °C.

“CGACGTGCTATATGTGCTG+CAGCACATCATGCACGTCG ((((((((...((((((((+))))))))...))))))))”: the Tm is 50.2 °C.

“CGACGTGCATCATGTGCTG+CAGCACATGGTGCACGTCG (((((((((.(((((((((+))))))))).)))))))))”: the Tm was found to be 60.1 °C.

For “CGACGTGCTGCATGTGCTG+CAGCACATAACGCACGTCG ((((((((...((((((((+))))))))...))))))))”, the Tm came out at 49.4 °C.

Regarding “CGACGTGCGGCATGTGCTG+CAGCACATTTAGCACGTCG ((((((((...((((((((+))))))))...))))))))”, the Tm stood at 52 °C.

For “CGACGTGCCGCATGTGCTG+CAGCACATCTCGCACGTCG ((((((((...((((((((+))))))))...))))))))”, the Tm amounted to 47.8 °C.

Regarding “CGACGTGCTAGATGTGCTG+CAGCACATTCGGCACGTCG ((((((((...((((((((+))))))))...))))))))”, the Tm worked out at 52.1 °C.

On to “CGACGTGCCCCATGTGCTG+CAGCACATTACGCACGTCG ((((((((...((((((((+))))))))...))))))))”, for which the Tm came to 54.6 °C.

On to “CGACGTGCTCCATGTGCTG+CAGCACATCCAGCACGTCG (((((((((..((((((((+))))))))..)))))))))”, for which the Tm amounted to 48.7 °C.

For “CGACGTGCGTGATGTGCTG+CAGCACATCAGGCACGTCG ((((((((.((((((((((+)))))))))).))))))))”, the Tm was found to be 59.6 °C.

“CGACGTGCACTATGTGCTG+CAGCACATCCCGCACGTCG ((((((((...((((((((+))))))))...))))))))”: the Tm was found to be 42.6 °C.

With “CGACGTGCAAAATGTGCTG+CAGCACATACTGCACGTCG (((((((((..((((((((+))))))))..)))))))))”, the Tm came to 50.4 °C.

For the substance “CGACGTGCCCGATGTGCTG+CAGCACATTGCGCACGTCG ((((((((.(.((((((((+)))))))).).))))))))”, the Tm is 51.2 °C.

Turning to “CGACGTGCTGAATGTGCTG+CAGCACATATCGCACGTCG ((((((((...((((((((+))))))))...))))))))”, the Tm is 50.2 °C.

Regarding “CGACGTGCGTGATGTGCTG+CAGCACATTGAGCACGTCG ((((((((...((((((((+))))))))...))))))))”, the midpoint of thermal melting (Tm) is 54.7 °C.

Regarding “CGACGTGCCGCATGTGCTG+CAGCACATATAGCACGTCG ((((((((...((((((((+))))))))...))))))))”, the Tm was determined as 48.2 °C.

With “CGACGTGCTTCATGTGCTG+CAGCACATGCAGCACGTCG (((((((((.(((((((((+))))))))).)))))))))”, the Tm came to 56.9 °C.

“CGACGTGCGCCATGTGCTG+CAGCACATTTGGCACGTCG ((((((((...((((((((+))))))))...))))))))”: the Tm is 47.4 °C.

Source of the values: the array DNA melting data of Ke et al..
